Assay results: EP2832747A1 (Université Catholique de Louvain, dated 2015)

Biological target: T1, shGARP-TGFβ (human)
T1 construct: also called immobilized shGARP-TGFβ
Test: BIACOR analysis (SPR), immobilized shGARP-TGFβ

T1 sequence (Q14392 20-627): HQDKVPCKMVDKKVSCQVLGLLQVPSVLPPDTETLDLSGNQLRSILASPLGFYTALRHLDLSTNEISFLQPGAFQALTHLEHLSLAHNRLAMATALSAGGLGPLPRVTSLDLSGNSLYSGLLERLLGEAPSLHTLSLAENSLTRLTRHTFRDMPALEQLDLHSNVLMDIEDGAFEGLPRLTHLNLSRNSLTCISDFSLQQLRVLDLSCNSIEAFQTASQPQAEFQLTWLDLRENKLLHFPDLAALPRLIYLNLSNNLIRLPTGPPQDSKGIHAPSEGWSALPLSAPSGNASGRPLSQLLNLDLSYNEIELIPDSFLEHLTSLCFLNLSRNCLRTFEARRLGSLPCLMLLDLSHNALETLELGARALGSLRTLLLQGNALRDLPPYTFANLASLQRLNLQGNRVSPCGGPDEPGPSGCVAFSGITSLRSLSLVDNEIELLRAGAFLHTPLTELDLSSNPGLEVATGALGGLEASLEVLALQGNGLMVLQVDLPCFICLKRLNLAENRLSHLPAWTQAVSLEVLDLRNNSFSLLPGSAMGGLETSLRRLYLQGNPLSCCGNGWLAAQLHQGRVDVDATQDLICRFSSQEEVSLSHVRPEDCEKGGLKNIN

B1: MHGARP8 (antibody, V domains shown)
VH: QVQLKESGPGLVAPSQSLSITCTVSGFSLTGYGINWVRQPPGKGLEWLGMIWSDGSTDYNSVLTSRLRISKDNSNSQVFLKMNSLQVDDTARYYCARDRNYYDYDGAMDYWGQGTSVTVSS
VL: DIQVTQSSSYLSVSLGDRVTITCKASDHIKNWLAWYQQKPGIAPRLLVSGATSLEAGVPSRFSGSGSGKNFTLSITSLQTEDVATYYCQQYWSTPWTFGGGTTLEIR
notes: Mouse monoclonal from hybridoma MHGARP8 (LMBP 10246CB); used biotinylated in flow cytometry; also called MGARPB; antibody of hybridoma LMBP 10246CB
Question: B1 was tested. Which Kd did it give?
Answer: 200 pM
